Measurements as given in the nanobody polyreactivity screen of Harvey et al. (2022).

assay: yeast display, Sf9 membrane polyspecificity reagent, FACS + sequencing; frameworks hold sequencing errors
In short: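 Galactose-induced (36–48 hours) yeast carrying a synthetic nanobody display library were exposed to 10% biotinylated, detergent-solubilized Sf9 membrane reagent at 4 °C for 1 hour. FACS followed streptavidin microbead enrichment, using low and high (top ~1%) gates for expression (anti-HA) and reagent binding (streptavidin). Colony PCR, MiSeq 2 × 250 sequencing and CDR-length filtering followed. Labels for polyreactivity reflect the gate of origin.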

Row | Sequence | polyreactivity (PSR sort gate)
1 | QVQHVESGGGLVQAGGSLRLSCAASGLTFANYVMGWYRQAPGKERELVASISISGGSTYYADSVKGRFTISRDNAKNTVYLQMNSLKPEDTAVYYCAASFVSSYQYDYWGQGTQVTVSS | high polyreactivity
2 | QVQHVESGGGLVQAGGSLRLSCAASGLTFLSNAMGWYRPARGNEWELVAAINSGARKFYADSVKGRFTISRDNAKNTVYLQMNCLKPEDTAVYYCNADYGKPSYYDDGDYWGEGTQVTVSS | low polyreactivity
3 | QVQHVESGGGLVQAGGSLRLSCAASGLTLKRNAMGWYRQAPGKERELVAAISGRGGSTYYADSVKGRFTISRDNAKNTVYLQMNSLKPEDTAVYYCAATVQYSPIYDYWGQGTQVTVSS | high polyreactivity
4 | QVQHVESGGGLVQAGGSLRLSCAASGNIFDRNAMGWDRQARGKERELVAAISRSGGRTYYADSVKGRFTISRDHAKNTVYLQMNSLKPEDTAVYYCNRRYRKYSSAKYDYWGQGTQVTVSS | high polyreactivity
5 | QVQHVESGGGLVQAGGSLRLSCAASGNIFTRNPMGWYRQAPGKERELVAAINYSGGSTYYADSVKGRFTISRDNAKNTVYLQMNSLKPEDTAVYYCAKDYAPSTDSYDYWGQGTQVTVSS | low polyreactivity
6 | QVQHVESGGGLVQAGGSLRLSCAASGRIFGKNDMGWYRQAPGNERELVAAITTSGGSTYYADSVKGRFTISRYNAKNTVYLQMNSLKPEDTAVYYCNAAFQNKGYIRKYKYDYWGQGTQVTVSS | low polyreactivity
7 | QVQHVESGGGLVQAGGSLRLSCAASGRIFGTYAMGWYRQAPGKERELVAAISWSGGRTYYADSVKGRFTISRDNAKNTVYLQMNSLKPEHTAVYYCAARGVPRDGRHHYRYDYWGQGSQVTVSS | high polyreactivity
8 | QVQHVESGGGLVQAGGSLRLSCAASGRIFGYYAMGWYRQAHGKQSELVAAITSGGRTNYADSVKGRFTISRDNAKNTVYLQMNSLKPEDTAVYYCAKEYPRYSSPYDYWGQGTQVTVSS | low polyreactivity
9 | QVQHVESGGGLVQAGGSLRLSCAASGRIFHRNAMGWYRKAPGKERELVAAISYRSGSTYYADSVKGRFTISRDNEKYTVYLQMNSLKPEDTAVYYCAKVRHIRFHYYYGYQSYYYWGQGTQVTLSS | high polyreactivity
10 | QVQHVESGGGLVQAGGSLRLSCAASGRIFVPYGMGWYRQAPGKERELVAAISLRGGTTYYADSVKGRFTISRDNAKNTVYLQMNSLKPEDTAVYYCAARGYVSVWRPYHWFVAGDYWGQGTQVTVSS | high polyreactivity
11 | QVQHVESGGGLVQAGGSLRLSCAASGRIFVYYALGWYRQAPGKERELVASISYSGASTYYADSVKGRFTISRDNAKNTVYLQMNSLKPEDTAVYYCNTDGDDFFHVIYDYWGQGTQVTVSS | low polyreactivity
12 | QVQHVESGGGLVQAGGSLRLSCAASGRIFYAYAMGWYRQAPGKERELVASISGGGSTDYADSVKGRFTISRDNAKNTVYLQMNSLKPEDTGVYYCAAQYYLYRSRFDYWGQGTQVTVSS | high polyreactivity
13 | QVQHVESGGGLVQAGGSLRLSCAASGRTFAKYAMRWSRQAPGKERELVAAIRWSGGSTYYADSVKGRFTISRDNAKNTVYLQMNSLKPEDTAVYYCAARPALWGRYRGYDYWGQGTQVTVSS | high polyreactivity
14 | QVQHVESGGGLVQAGGSLRLSCAASGRTFALNAMGWYRQAPGKERELVAAISWSSGRTYYADSVKGRFTISRDNAKNTVYLQMNSLKPEDTAVYYCAALVAHKGDYWGQGTQVTVSS | high polyreactivity
15 | QVQHVESGGGLVQAGGSLRLSCAASGRTFDRNAMGWYRQPPGKERELVAGITRSGDSTYADSVKVRFTISRDNAKNTVYLQMNSLKPVDTAVYYCNKEGTIGGTRGYWGQGTQVTVSS | low polyreactivity
16 | QVQHVESGGGLVQAGGSLRLSCAASGRTFGQNAMGWYRQAPGKERELVASIRSGGITDYADSVKGRFTISRDNAKNTVYLHMNSLKPEDTAVYYCNAEGVWWSTRYDSWGQGTQVTVSA | low polyreactivity
17 | QVQHVESGGGLVQAGGSLRLSCAASGRTFRGNAMGWDRQAPGKERELVAAIRYRGGSTYYADSVKGRFTISRDNAKNTVYLQMNSLKPEDTAVYYCARRYTVHTQHYDYWGQGTQVTVSS | high polyreactivity
18 | QVQHVESGGGLVQAGGSLRLSCAASGRTFSANAMGWDRQAPGKEMELVATISSGGRTNYADSVKGRFTISRDNAKNTVYLQMNSLKPEDTAVYYCAKRGPYKRWYGRYDYWGQGTQVTVSS | low polyreactivity
19 | QVQHVESGGGLVQAGGSLRLSCAASGRTFYRNAMGWSRQAPGKERELVARINDGAGTYYADSVKGRFTISRDNAKNTVYLQMNSLKPEDTAVYYCAADYGSKLDYGYWGQGTQVTVSS | low polyreactivity
20 | QVQHVESGGGLVQAGGSLRLSCAASGRTITLNAMGWYRQAPGKERELVAAITWGAGSTYYADSVKGRFTISRDNAKNTVYLQMNSLKPEDTAVYYCAARFHGAYYRYRSPSMYYWGQGTQVTVSS | high polyreactivity
21 | QVQHVESGGGLVQAGGSLRLSCAASGRTSFNYTQGWYRQAPGKERELVAAITSGGDTYYADSVKGRFTISRDNAKNTVYLPMNSLKPEDTAVYYCAVDDLGSEYDYWGQGTQVTVSS | low polyreactivity
22 | QVQHVESGGGLVQAGGSLRLSCAASGSIFAYYAMGWYRQAPGKERELVAAISYRGGSTYYADSVKGRFTISRDNAKNTVYLQMNSLKPEDTAVYYCNAGGRRRIFAHSSTGDYWGQGTQVTVSS | high polyreactivity

Row | Sequence | polyreactivity (PSR sort gate)
23 | QVQHVESGGGLVQAGGSLRLSCAASGSIFGRYAMGWYRQAPGKERELVAAIRTDGSTYYADSVKGRFTISRDNAKNTVYLQMNSLKPEDTAVYYCAAVSKFQFHYIQYADRQYGYWGQGTQVTVSS | low polyreactivity
24 | QVQHVESGGGLVQAGGSLRLSCAASGSIFGRYVMGRYRQAPGKESEFVAAISRSGGRTYYADSVKGRFTISRDNAKNTVYLQMNSLKPEDTAVYYCNAVGAAGPYDYWGQGTQVTVSS | high polyreactivity
25 | QVQHVESGGGLVQAGGSLRLSCAASGSIFITYAMGWYRQAPGKERELVAAIRDSGDRTYYADSVKGRFTISRDNAKNTVYLQMNSLKPEDTAVYYCNARWQEPQKYDYWGQGTQVTVSS | low polyreactivity
26 | QVQHVESGGGLVQAGGSLRLSCAASGSIFVWYAMGWYRQAHGKERELVAAINWSGGRTYYADSVKGRFTISRDNAKNTVYLQMNSLKPEDTAVYYCAAELRRSDTYNYWGQGTQVTVSS | high polyreactivity
27 | QVQHVESGGGLVQAGGSLRLSCAASGSIFYIYAMGWYRQAPGKERELVAAISGSGSTYYADSVKGRFTISRDNAKNTVYLQMNSLKPEDTAVYDCAVELWRFWGAYTYTYDYWGQGTLVTVSS | high polyreactivity
28 | QVQHVESGGGLVQAGGSLRLSCAASGSILGVNAMGWYRQAPGKERELVAAISRTGGTTYYADSVKGRFTISRDNAKNTVYLQMHSLKPEDTAVYYCAGDVVFTSVPTGYLGYEYWGQGTQVTVSS | high polyreactivity
29 | QVQHVESGGGLVQAGGSLRLSCAASGSTFAFYAMGWYRQAPGKERELVAAITWRVGSTYYADSVKGRFTISRDNAKNTVYLQMNSLKPEDTAVYYCAVDIPFYDSDYCGQGTQVTVSS | low polyreactivity
30 | QVQHVESGGGLVQAGGSLRLSCAASGSTFDRYAMAWYRQAPGKERELVAAISRSTGRTNYADSVKGRFTISRDNAKNTVYLQMNSLIPEDTAVYYCAAYRYLRYDYWGQGTQVTVSS | high polyreactivity
31 | QVQHVESGGGLVQAGGSLRLSCAASGSTFKFYTMGWYRQAPGKERELVAGSTRAGSTNYADSVKGRFTISRDNAKNTVYLQMNSLKPEDTAVYYCNAYIWIYGCDYWGQGTQVTVSS | high polyreactivity
32 | QVQHVESGGGLVQAGGSLRLSCAASGSTFLANTMGWYRQAHGKERELVAAITRRGGSTRYADSVKGRFTISRDNAKNTVYLQMNSLKPEDTAVYYCAAPWFRDTRGYSLYDYWGQGTQVTVSS | high polyreactivity
33 | QVQHVESGGGLVQAGGSLRLSCAASGSTFLYYAMGWSRQAPGKERELVARITTRVGRTYYADSVKGRFTISRDNAKNTVYLQMNSLKPEDTAVYYCAAYPDYSYYYWGQGTQVTVSS | high polyreactivity
34 | QVQHVESGGGLVQAGGSLRLSCAASGSTFRFYDMGWYRQSPGKERELVATISSSGGTTYYADSVKGRFTISRDNAKNTVYLQMNSLKPEDTAVYYCNKYYGGRYRQYAYGYWGQGTQVTVSS | high polyreactivity
35 | QVQHVESGGGLVQAGGSLRLSCAASGSTFRVNAMGWYRPAPGKERELVAGISKSGTSTYYADSVKGRFTISRDNAKNTVYLQMNSLKPEDTAVYYCIKGYYRHPDESDYWGQGTQVTVSS | high polyreactivity
36 | QVQHVESGGGLVQAGGSLRLSCAASGSTFYYYAMGWYRQARGKERELVATISRSTARTFYADSVKGRFTISRDNAKITVYLQMNSLKPEDTAVYYCAREYYYRRGFFLRGYWGQGTQVTVSS | high polyreactivity
37 | QVQHVESGGGLVQAGGSLRLSCAASGSTITANAMGWYRQAPGKERELVPAISDTTGNTYYADSVMGRFTISRDNANNTVYLQMNSLKPEDTAVYYCAADLTSYYGGDYWGQGTQVTVSS | low polyreactivity
38 | QVQHVESGGGLVQAGGSLRLSCAASGYIFKGNVMGWYRQAPGKERELVAAISRSGGRTYYADSVKGRFTISRDNAKNTVYLQLNSLKPDDTAVFYCFTKHRTKPTRPVDYWGQGTQVTVSS | high polyreactivity
39 | QVQHVESGGGLVQAGGSLRLSCAASGYIFPDYAMGWYRLAPGKEREMVAAITSSGGITYYADSVKGRFTISRDNAKNTVYLQMNCLKPEDSAVYYCAKGYPWRYSIMDYWGQGTQVTVSS | low polyreactivity
40 | QVQHVESGGGLVQAGGSLRLSCAASGYIFSRYMGWYRQAPGKERQLVAAITRGGVSTYYADSVKGRFTISRDNAKNTVYLQMNSLKPEDTAVYYCATGRPVYYVASYDYDYWGQGTQVTVSS | low polyreactivity
41 | QVQHVESGGGLVQAGGSLRLSCAASGYTFPLYAMGWYRQAPGKEREFVAAISKRSGTTYYADSVKGRFTISRDNAKNTVYLQMNSLKPEDTAVYYCNAGYSVYNQRFGYWGQGTQVTVSS | high polyreactivity
42 | QVQHVESGGGLVQAGGSLRLSCAASIRIFRYYAMGRSRQGPGKEREVVASSRSASSTYYADSVKGRFTISRDNAKNPVYLQMNSLKAEDTAVYYCNAVSPLSIWSSRDGWYGYWGQGTQVTVSS | high polyreactivity
43 | QVQHVESGGGLVQAGGSLRLSCAASMGWYRQAPGKERELVAAINSGGSTNYADSVKGRFTISRDNAKNTVYLQMNSLKPEDTAVYYCAKTFSNLPEYDYWGQGTQVTVSS | low polyreactivity
